Measurements reported in PMC9482650, “Quantitative fragmentomics allow affinity mapping of interactomes” (Nature Communications, 2022).
Each block holds one binder with its values, some of them ahead of it.

Tests used:
Assay in all cases: holdup assay
Parameters in all cases: key: below the threshold = too weak to quantify, mostly under pKd 3.1 to 4
DLG3_1, Q92796 = biological target: T1, DLG3_1, Q92796
T1 sequence (Q92796 125-227, limits assumed, looked up): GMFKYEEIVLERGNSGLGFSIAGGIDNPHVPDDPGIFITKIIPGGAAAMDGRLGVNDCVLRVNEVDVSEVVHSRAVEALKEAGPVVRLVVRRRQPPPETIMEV

LIN7B, Q9HAP6 = biological target: T2, LIN7B, Q9HAP6
T2 sequence (Q9HAP6 88-185, limits assumed, looked up): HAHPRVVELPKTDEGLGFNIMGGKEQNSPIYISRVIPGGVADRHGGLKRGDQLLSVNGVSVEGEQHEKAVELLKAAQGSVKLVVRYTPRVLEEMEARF

MAGI2_6, Q86UL8 = biological target: MAGI2_6, Q86UL8
MAGI2_6, Q86UL8, sequence (Q86UL8 1141-1229): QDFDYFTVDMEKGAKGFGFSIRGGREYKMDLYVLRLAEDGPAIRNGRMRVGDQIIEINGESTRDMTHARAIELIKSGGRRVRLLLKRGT

NHERF4_4, Q86UT5 = biological target: NHERF4_4, Q86UT5
NHERF4_4, Q86UT5, sequence (Q86UT5 464-550): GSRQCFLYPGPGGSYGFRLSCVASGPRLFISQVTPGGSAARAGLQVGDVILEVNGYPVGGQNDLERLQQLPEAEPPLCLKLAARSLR

TJP1_3, Q07157 = biological target: TJP1_3, Q07157
TJP1_3, Q07157, sequence (Q07157 416-512): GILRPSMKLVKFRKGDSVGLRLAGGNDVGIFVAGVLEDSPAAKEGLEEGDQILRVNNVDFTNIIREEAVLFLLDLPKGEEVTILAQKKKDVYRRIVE

GIPC2, Q8TF65 = biological target: GIPC2, Q8TF65
GIPC2, Q8TF65, sequence (Q8TF65 112-203): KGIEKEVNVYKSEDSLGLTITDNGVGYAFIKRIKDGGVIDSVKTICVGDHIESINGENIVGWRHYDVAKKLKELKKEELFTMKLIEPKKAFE

DLG3_2, Q92796 = biological target: T3, DLG3_2, Q92796
T3 sequence (Q92796 221-321, limits assumed, looked up): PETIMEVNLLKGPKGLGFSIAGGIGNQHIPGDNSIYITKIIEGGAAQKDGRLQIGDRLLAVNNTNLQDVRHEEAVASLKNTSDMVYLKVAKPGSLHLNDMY

PTPN13_1, Q12923 = biological target: T4, PTPN13_1, Q12923
T4 sequence (Q12923 1088-1188, limits assumed, looked up): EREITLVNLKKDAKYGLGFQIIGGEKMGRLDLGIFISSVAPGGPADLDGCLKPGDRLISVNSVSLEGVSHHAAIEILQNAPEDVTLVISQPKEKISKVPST

DLG4_2, P78352 = biological target: DLG4_2, P78352
DLG4_2, P78352, sequence (P78352 155-259): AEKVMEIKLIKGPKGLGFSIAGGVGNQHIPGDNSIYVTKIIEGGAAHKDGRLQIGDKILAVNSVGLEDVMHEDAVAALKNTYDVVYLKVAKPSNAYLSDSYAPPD

MPP2, Q14168 = biological target: T5, MPP2, Q14168
T5 sequence (Q14168 180-250, limits assumed, looked up): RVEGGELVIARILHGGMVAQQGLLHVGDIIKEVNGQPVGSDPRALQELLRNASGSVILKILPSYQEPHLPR

Inadl_9, Q8NI35 = biological target: Inadl_9, Q8NI35
Inadl_9, Q8NI35, sequence (Q8NI35 1530-1615): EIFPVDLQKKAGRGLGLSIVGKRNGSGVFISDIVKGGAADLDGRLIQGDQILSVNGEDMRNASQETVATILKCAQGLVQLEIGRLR

MAGI1_1, Q96QZ7 = biological target: MAGI1_1, Q96QZ7
MAGI1_1, Q96QZ7, sequence (Q96QZ7 1-106): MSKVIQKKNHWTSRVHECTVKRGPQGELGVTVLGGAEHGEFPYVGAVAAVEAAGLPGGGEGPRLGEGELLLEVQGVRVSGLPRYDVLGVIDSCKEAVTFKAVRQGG

APBA1_1, Q02410 = biological target: T6, APBA1_1, Q02410
T6 sequence (Q02410 651-752, limits assumed, looked up): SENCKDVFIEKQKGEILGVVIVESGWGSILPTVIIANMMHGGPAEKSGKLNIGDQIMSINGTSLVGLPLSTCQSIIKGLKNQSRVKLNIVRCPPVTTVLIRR

Inadl_8, Q8NI35 = biological target: Inadl_8, Q8NI35
Inadl_8, Q8NI35, sequence (Q8NI35 1425-1530): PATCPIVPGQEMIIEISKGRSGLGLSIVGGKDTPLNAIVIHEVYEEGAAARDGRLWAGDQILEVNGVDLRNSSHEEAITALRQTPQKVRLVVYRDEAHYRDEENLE

TX1BP3, O14907 = biological target: T7, TX1BP3, O14907
T7 sequence (O14907 10-122, limits assumed, looked up): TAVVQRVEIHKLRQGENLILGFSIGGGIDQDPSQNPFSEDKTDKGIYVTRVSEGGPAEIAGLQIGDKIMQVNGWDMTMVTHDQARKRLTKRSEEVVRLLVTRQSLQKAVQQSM

DLG3_3, Q92796 = biological target: T8, DLG3_3, Q92796
T8 sequence (Q92796 374-475, limits assumed, looked up): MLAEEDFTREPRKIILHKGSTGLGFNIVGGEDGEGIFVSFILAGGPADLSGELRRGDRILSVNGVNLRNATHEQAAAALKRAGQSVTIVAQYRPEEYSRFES

MAGI2_4, Q86UL8 = biological target: MAGI2_4, Q86UL8
MAGI2_4, Q86UL8, sequence (Q86UL8 772-865): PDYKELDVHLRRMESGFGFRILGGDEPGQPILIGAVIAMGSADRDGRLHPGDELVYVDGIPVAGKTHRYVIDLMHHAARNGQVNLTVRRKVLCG

SNTG1, Q9NSN8 = biological target: T9, SNTG1, Q9NSN8
T9 sequence (Q9NSN8 52-150, limits assumed, looked up): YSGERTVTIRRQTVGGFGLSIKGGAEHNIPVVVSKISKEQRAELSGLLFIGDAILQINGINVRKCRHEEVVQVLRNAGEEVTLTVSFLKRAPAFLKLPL

NHERF3_3, Q5T2W1 = biological target: T10, NHERF3_3, Q5T2W1
T10 sequence (Q5T2W1 238-333, limits assumed, looked up): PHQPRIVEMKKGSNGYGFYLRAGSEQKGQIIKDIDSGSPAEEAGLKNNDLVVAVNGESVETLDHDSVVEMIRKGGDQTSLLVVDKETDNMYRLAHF

GRIP1_2, Q9Y3R0 = biological target: T11, GRIP1_2, Q9Y3R0
T11 sequence (Q9Y3R0 145-248, limits assumed, looked up): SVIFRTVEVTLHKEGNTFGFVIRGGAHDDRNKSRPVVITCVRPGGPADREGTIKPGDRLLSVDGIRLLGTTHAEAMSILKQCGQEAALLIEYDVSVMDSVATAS

FRMPD2_3, Q68DX3 = biological target: FRMPD2_3, Q68DX3
FRMPD2_3, Q68DX3, sequence (Q68DX3 1073-1166): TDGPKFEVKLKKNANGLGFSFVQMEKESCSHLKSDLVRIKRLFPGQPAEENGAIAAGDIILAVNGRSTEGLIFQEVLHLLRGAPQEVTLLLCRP

Inadl_3, Q8NI35 = biological target: Inadl_3, Q8NI35
Inadl_3, Q8NI35, sequence (Q8NI35 359-469): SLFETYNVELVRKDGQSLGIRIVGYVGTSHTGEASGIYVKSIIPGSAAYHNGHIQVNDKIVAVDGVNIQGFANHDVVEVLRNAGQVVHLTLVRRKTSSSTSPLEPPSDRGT

LNX1_1, Q8TBB1 = biological target: LNX1_1, Q8TBB1
LNX1_1, Q8TBB1, sequence (Q8TBB1 261-371): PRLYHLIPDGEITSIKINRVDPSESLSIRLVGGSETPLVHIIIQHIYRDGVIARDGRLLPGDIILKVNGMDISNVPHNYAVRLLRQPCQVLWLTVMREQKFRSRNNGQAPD

CASK, O14936 = biological target: CASK, O14936
CASK, O14936, sequence (O14936 487-570): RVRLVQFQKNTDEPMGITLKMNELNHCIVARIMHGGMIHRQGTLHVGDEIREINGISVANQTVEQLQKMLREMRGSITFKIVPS

LNX1_2, Q8TBB1 = biological target: LNX1_2, Q8TBB1
LNX1_2, Q8TBB1, sequence (Q8TBB1 371-470): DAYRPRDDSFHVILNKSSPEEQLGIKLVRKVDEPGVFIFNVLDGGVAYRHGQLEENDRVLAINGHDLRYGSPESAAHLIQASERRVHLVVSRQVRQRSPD

TJP3_3, O95049 = biological target: T12, TJP3_3, O95049
T12 sequence (O95049 375-456, limits assumed, looked up): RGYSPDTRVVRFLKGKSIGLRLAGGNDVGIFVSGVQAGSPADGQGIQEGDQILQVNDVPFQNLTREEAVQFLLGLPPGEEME

[1] = plain residues with an end cap or a label only (N-terminal biotin on a linker: gsgsgs; C-terminal amide)
[2] = plain residues with an end cap or a label only (N-terminal biotin on a linker: ttds)
[3] = plain residues with an end cap or a label only (N-terminal biotin on a linker: ado-ado)

pKd (DLG3_1, Q92796; [1]): below the threshold
pKd (LIN7B, Q9HAP6; [1]): 3.67
pKd (MAGI2_6, Q86UL8; [1]): below the threshold
pKd (NHERF4_4, Q86UT5; [1]): 3.55
pKd (TJP1_3, Q07157; [1]): below the threshold
pKd (GIPC2, Q8TF65; [1]): below the threshold
pKd (DLG3_2, Q92796; [1]): 4.16
pKd (PTPN13_1, Q12923; [1]): below the threshold
pKd (DLG4_2, P78352; [1]): below the threshold
pKd (MPP2, Q14168; [1]): below the threshold
pKd (Inadl_9, Q8NI35; [1]): below the threshold
pKd (MAGI1_1, Q96QZ7; [1]): below the threshold
pKd (APBA1_1, Q02410; [1]): below the threshold
pKd (Inadl_8, Q8NI35; [1]): below the threshold
pKd (TX1BP3, O14907; [1]): 3.92
pKd (DLG3_3, Q92796; [1]): below the threshold
pKd (MAGI2_4, Q86UL8; [1]): below the threshold
pKd (SNTG1, Q9NSN8; [1]): below the threshold
pKd (NHERF3_3, Q5T2W1; [1]): below the threshold
pKd (GRIP1_2, Q9Y3R0; [1]): below the threshold
pKd (FRMPD2_3, Q68DX3; [1]): below the threshold
pKd (Inadl_3, Q8NI35; [1]): below the threshold
pKd (LNX1_1, Q8TBB1; [1]): below the threshold
pKd (CASK, O14936; [1]): below the threshold
pKd (LNX1_2, Q8TBB1; [1]): below the threshold
pKd (TJP3_3, O95049; [1]): below the threshold
Binder: ELIQDTSTSFSTTREW [ARAP3_int, Q8WWN8]

pKd (DLG3_1, Q92796; [2]): 3.34
pKd (LIN7B, Q9HAP6; [2]): 3.38
pKd (MAGI2_6, Q86UL8; [2]): 4.11
pKd (NHERF4_4, Q86UT5; [2]): 3.45
pKd (TJP1_3, Q07157; [2]): below the threshold
pKd (GIPC2, Q8TF65; [2]): below the threshold
pKd (DLG3_2, Q92796; [2]): 3.97
pKd (PTPN13_1, Q12923; [2]): 3.36
pKd (DLG4_2, P78352; [2]): 3.97
pKd (MPP2, Q14168; [2]): below the threshold
pKd (Inadl_9, Q8NI35; [2]): below the threshold
pKd (MAGI1_1, Q96QZ7; [2]): 3.5
pKd (APBA1_1, Q02410; [2]): below the threshold
pKd (Inadl_8, Q8NI35; [2]): 3.8
pKd (TX1BP3, O14907; [2]): 5.08
pKd (DLG3_3, Q92796; [2]): 3.49
pKd (MAGI2_4, Q86UL8; [2]): 3.75
pKd (SNTG1, Q9NSN8; [2]): 3.72
pKd (NHERF3_3, Q5T2W1; [2]): 3.52
pKd (GRIP1_2, Q9Y3R0; [2]): below the threshold
pKd (FRMPD2_3, Q68DX3; [2]): below the threshold
pKd (Inadl_3, Q8NI35; [2]): 3.33
pKd (LNX1_1, Q8TBB1; [2]): 4.03
pKd (CASK, O14936; [2]): below the threshold
pKd (LNX1_2, Q8TBB1; [2]): 3.46
pKd (TJP3_3, O95049; [2]): 3.43
Binder: HRTCYLVTQL [ASIC3, Q9UHC3]

pKd (DLG3_1, Q92796; [3]): below the threshold
pKd (LIN7B, Q9HAP6; [3]): below the threshold
pKd (MAGI2_6, Q86UL8; [3]): below the threshold
pKd (NHERF4_4, Q86UT5; [3]): 4.07
pKd (TJP1_3, Q07157; [3]): below the threshold
pKd (GIPC2, Q8TF65; [3]): below the threshold
pKd (DLG3_2, Q92796; [3]): below the threshold
pKd (PTPN13_1, Q12923; [3]): below the threshold
pKd (DLG4_2, P78352; [3]): 3.75
pKd (MPP2, Q14168; [3]): below the threshold
pKd (Inadl_9, Q8NI35; [3]): 4.37
pKd (MAGI1_1, Q96QZ7; [3]): 3.59
pKd (APBA1_1, Q02410; [3]): below the threshold
pKd (Inadl_8, Q8NI35; [3]): below the threshold
pKd (TX1BP3, O14907; [3]): 4.12
pKd (DLG3_3, Q92796; [3]): 3.51
pKd (MAGI2_4, Q86UL8; [3]): 3.83
pKd (SNTG1, Q9NSN8; [3]): 3.57
pKd (NHERF3_3, Q5T2W1; [3]): below the threshold
pKd (GRIP1_2, Q9Y3R0; [3]): below the threshold
pKd (FRMPD2_3, Q68DX3; [3]): below the threshold
pKd (Inadl_3, Q8NI35; [3]): 3.55
pKd (LNX1_1, Q8TBB1; [3]): below the threshold
pKd (CASK, O14936; [3]): below the threshold
pKd (LNX1_2, Q8TBB1; [3]): 4.37
pKd (TJP3_3, O95049; [3]): below the threshold
Binder: LHLHGTGIQV [EPHA7, Q15375]
